In article PMC9640706, “Structure of the IscB–ωRNA ribonucleoprotein complex, the likely ancestor of CRISPR-Cas9”:

Target: T1, OgeuIscB ΔHNH (human gut metagenome (OgeuIscB), UniProt PDB:7XHT_4 1-198+=GGSG+296-496, internal_change)
T1 sequence: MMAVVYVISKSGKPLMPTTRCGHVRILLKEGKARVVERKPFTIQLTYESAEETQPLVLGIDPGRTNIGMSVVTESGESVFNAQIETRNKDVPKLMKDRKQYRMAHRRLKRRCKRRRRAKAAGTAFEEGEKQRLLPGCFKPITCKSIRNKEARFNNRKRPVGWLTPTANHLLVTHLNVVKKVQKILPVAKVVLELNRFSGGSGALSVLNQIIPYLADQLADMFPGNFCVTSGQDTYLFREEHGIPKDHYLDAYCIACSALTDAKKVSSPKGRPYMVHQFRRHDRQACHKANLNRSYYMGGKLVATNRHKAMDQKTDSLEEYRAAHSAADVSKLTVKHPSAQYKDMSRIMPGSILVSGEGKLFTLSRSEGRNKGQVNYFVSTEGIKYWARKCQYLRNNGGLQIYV
Assay: cryo-EM (2.6 Å); Mg2+ bound in RuvC site; Purification: 20 mM Tris-HCl pH 8.0, NaCl gradient 0.075-2 M (heparin), 10% glycerol, 5 mM MgCl2, 2 mM DTT; cryo-EM sample buffer not in the material
Details: protein: recombinant; strand 1 ωRNA, strand 2 TS, strand 3 NTS; NTS pairs with TS nt 1-14; ωRNA guide nt 1-27 complementary to TS nt 15-41 (17 bp resolved); TS 3' tail 8 nt

B1: ωRNA (233 nt) + partially double-stranded target DNA (TS 49 nt, NTS 14 nt) (mixed)
RNA: GGAAUUGUGAGCGGAUAACAAUUCCCCGGCUCUUCCAACUUUAUGGUUGCGACCGUAGGUUGAAAGAGCACAGGCUGAGACAUUCGUAAGGCCGAAAGACCGGACGCACCCUGGGAUUUCCCCAGUCCCCGGAACUGCAUAGCGGAUGCCAGUUGAUGGAGCAAUCUAUCAGAUAAGCCAGGGGGAACAAUCACCUCUCUGUAUCAGAGAGAGUUUUACAAAAGGAGGAACGG
DNA 1: GAATGGTTTTCTTCGGGGAATTGTTATCCGCTCACAATTCCTTAGAAAA
DNA 2: GAAGAAAACCATTC
  binding result: binds
